Measured values reported in patent publication US20230365705A1 (DYNAMICURE BIOTECHNOLOGY, published 2023).

T1: Human CD93 on cells (human CD93 expressing CHO cells; HUVEC, U937 and KG1a cells) (human, UniProt Q9NPY3 22-652)
T1 construct: whole, on cells; also called hCD93 expressing CHO cells; hCD93 CHO cells
T1 sequence (looked up): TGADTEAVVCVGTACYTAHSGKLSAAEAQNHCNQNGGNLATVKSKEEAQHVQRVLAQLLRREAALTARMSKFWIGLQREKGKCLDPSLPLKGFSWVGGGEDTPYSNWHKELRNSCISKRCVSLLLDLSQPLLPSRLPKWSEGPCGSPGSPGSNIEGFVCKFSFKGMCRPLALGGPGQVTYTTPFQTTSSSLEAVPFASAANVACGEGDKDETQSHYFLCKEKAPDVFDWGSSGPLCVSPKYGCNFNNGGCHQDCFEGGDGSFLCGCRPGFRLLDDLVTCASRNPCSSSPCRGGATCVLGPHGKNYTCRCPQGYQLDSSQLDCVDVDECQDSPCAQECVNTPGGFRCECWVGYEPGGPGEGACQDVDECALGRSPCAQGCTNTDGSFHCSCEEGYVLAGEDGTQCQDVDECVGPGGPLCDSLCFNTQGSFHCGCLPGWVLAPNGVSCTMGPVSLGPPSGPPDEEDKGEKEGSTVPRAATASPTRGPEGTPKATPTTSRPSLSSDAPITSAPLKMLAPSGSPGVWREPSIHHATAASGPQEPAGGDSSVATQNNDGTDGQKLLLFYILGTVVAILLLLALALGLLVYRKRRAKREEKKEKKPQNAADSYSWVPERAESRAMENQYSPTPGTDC

T2: Human CD93 recombinant protein (Sino Biological Inc, Catalog #12589-H08H) (human, UniProt Q9NPY3 22-580)
T2 construct: Biotinylated (EZ-LINK NHS-PEG4 biotin) in the BLI assays; also called hCD93; His-tagged human CD93
T2 sequence (looked up): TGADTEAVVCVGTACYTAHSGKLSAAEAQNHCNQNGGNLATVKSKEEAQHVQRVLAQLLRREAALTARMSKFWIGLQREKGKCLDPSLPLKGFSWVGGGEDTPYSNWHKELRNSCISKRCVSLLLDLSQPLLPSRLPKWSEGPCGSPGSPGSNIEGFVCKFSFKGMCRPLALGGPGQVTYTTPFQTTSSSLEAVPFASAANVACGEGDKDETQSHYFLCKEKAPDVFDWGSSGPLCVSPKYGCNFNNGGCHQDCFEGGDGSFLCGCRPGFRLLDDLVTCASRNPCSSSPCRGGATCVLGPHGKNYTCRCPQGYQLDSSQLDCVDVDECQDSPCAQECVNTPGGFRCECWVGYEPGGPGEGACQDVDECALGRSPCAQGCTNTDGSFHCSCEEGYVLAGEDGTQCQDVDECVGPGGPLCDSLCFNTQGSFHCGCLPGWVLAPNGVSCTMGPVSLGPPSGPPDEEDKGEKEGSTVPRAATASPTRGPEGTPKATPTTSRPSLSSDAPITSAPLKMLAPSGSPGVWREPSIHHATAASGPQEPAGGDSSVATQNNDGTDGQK


Experiments:
[1] = target: T1, Human CD93 on cells (human CD93 …); experiment: flow cytometry titration, HUVEC cells; antibody stored 2 weeks at 40 C
Experimental: HUVEC cells were detached by incubation with TrypLE reagents (Thermo Fisher), which preserves the integrity of CD93 on the cell surface. Then the cells were incubated with serial diluted anti-CD93 antibodies for 30 minutes at 4° C. After washing by FACS buffer, the cells were incubated with Alexa Fluor 647 conjugated anti-human IgG (Jackson ImmunoResearch) for 30 minutes in 4° C. After washing by FACS buffer twice, the samples were acquired in NovoCyte Flow Cytometer and analyzed by NovoExpress software.

[2] = target: T2, Human CD93 recombinant protein (Sino …); experiment: ELISA, hCD93-His coated, OD450; unit printed as pmM
Experimental: His-tagged human CD93 was coated onto a 96 well plate at 1 μg/mL in 1×PBS overnight at 4° C. The plate was washed with ELISA wash buffer (Boston BioProduct, Inc.) and the wells were blocked with ELISA blocking buffer for 1 hour at 37° C. Purified antibodies were serially diluted in ELISA blocking buffer (Boston BioProduct, Inc.) and incubated on the receptor for 1 hour at 37° C. The plate was washed with ELISA wash Buffer. […] The plate was washed with ELISA wash buffer. HRP substrate was added for indirect detection of the antibodies binding to CD93.

[3] = target: T2, Human CD93 recombinant protein (Sino …); experiment: BLI (Octet QKe), biotinylated CD93 on streptavidin biosensors; table under the hCD93 panels
Experimental: The binding affinity of anti-CD93 antibodies were determined with bio-layer interferometry using Octet QKe (Fortebio). Human CD93 recombinant protein (Sino Biological Inc, Catalog #12589-H08H) or cynomolgus CD93 protein (made in-house) were biotinylated using EZ-LINK NHS-PEG4 biotin (Thermo Fisher Scientific). Streptavidin biosensors (Fortebio) were used to load biotinylated CD93 protein (300 seconds at 5 μg/ml). The baseline was stabilized for 60 seconds in a 1× kinetics buffer (Fortebio) before serially diluted anti-CD93 antibodies were allowed to associate for 300 seconds with captured protein. The sensors were dissociated in a 1× kinetics buffer for 600 seconds.

Row | EC50 [1] | EC50 [2] | Kd [3] | koff [3] | kon [3] | Binder
1 | 1.17 nM | – | – | – | – | h7F3 (humanized 7F3, VH3+VL3) (antibody, human IgG1, V domains shown, also called humanized 7F3-hIgG1) VH: QVQLVQSGAEVKKPGASVKVSCKASGYTFTDYEMHWVRQAPGQGLEWMGGIDPETGDTAYNQNFKGRVTMTTDTSTSTAYMELRSLTSDDTAVYYCTNYGNLYYYAMDYWGQGTSVTVSS VL: EIVLTQSPSSLSASVGDRVTITCRASSSVSSSYLHWYQQKPGKAPKLLIYSTSNLAFGVPSRFSGSGSGTSYTFTISSLQPEDIATYYCQQYSGYPLTFGSGTKLEIK
2 | – | 0.112 nM | 0.447 nM | 0.000429 s⁻¹ | 960000 M⁻¹ s⁻¹ | 16E4 (hybridoma) (antibody, IgG2a, V domains shown, also called 16E4 mAb; 16E4 mIgG2a) VH: QVQLQQPGAELVKPGASVKLSCKASGYTFTSYWMHWVKQRPGQGLEWIGEIDPSASYTYYNQKFKGKATLTVDKSSSTAYMQLSSLTSEDSAVYYCARSVYYGNKYFDVWGAGTTVTVSS VL: not shown
